Article PMC6650482, “Tyrosine 51 residue of the syndecan-2 extracellular domain is involved in the interaction with and activation of pro-matrix metalloproteinase-7” (Scientific Reports, 2019)
Entries after “also recorded” stand apart in the source; their conditions may differ.

Experiments:
[1] = tested on: N-terminus of the extracellular domain of syndecan-2; assay: In vitro binding of MMP-7 α2–3 helix with N-terminus of the syndecan-2 extracellular domain; design: species or system human; details: His-tagged α2–3, GST-SDC2 mutants, anti-His immunoblot
Description: (§1) Figure 4 The α2–3 helix of the MMP-7 pro-domain is involved in its interaction with the syndecan-2 extracellular domain. (A) Structure of the MMP-7 pro-domain (PDB; 2MZE) and schematic diagram of the MMP-7 pro-domain (PD) and its deletion mutants. The indicated MMP-7 pro-domain mutants were purified with Ni-NTA agarose beads, separated by SDS-PAGE. Purified MMP-7 pro-domain mutants were incubated with GST-SDC-2. Materials bound to glutathione-agarose beads were immunoblotted with an anti-His tag antibody and the membranes were stripped and re-probed with an anti-GST antibody. Image is of a single membrane cropped to remove intervening lanes. (B) Purified GST-SDC2 mutants were incubated with His-tagged α2–3 helix of the MMP-7 pro-domain. Materials bound to glutathione-agarose beads were immunoblotted with an anti-His tag antibody (top) and the membranes were then stripped and re-probed with an anti-GST antibody (bottom). (C) The secondary structure of the α2–3 helix of the MMP-7 pro-domain was analyzed using CD in the presence of different concentrations of TFE (top). Quantitative estimations of the secondary-structure content were made with the CDPro software package, which includes the programs CDSSTR, CONTIN, and SELCON3. […] Smaller values of NRMSD indicate closer correspondence between calculated structures and the experimental data.

GST-SDC-2 = assay: In vitro binding of MMP-7 pro-domain fragments to GST-SDC2; design: species or system human; details: GST-SDC-2, glutathione-agarose beads, anti-His immunoblot
Description: as §1

[2] = Circular dichroism secondary structure; assay type: physicochemical
Description: Figure 2 The pro-domain of MMP-7 is involved in its interaction with the syndecan-2 extracellular domain. (A) Schematic representations of the pro-domain of MMP-7 (PD) and the deletion mutants lacking the pro-domain, N-terminus (ΔN), C-terminus (ΔC) and both N- and C-terminus (ΔNC) (top). His-tagged MMP-7 pro-domain was purified with Ni-NTA agarose beads, separated by SDS-PAGE and stained with Coomassie Blue (bottom). (B) Purified GST-S2E, S2E-C and S2E-NII were incubated with His-tagged PD, or ΔN, ΔC or ΔNC MMP-7 pro-domain. Materials bound to glutathione-agarose beads were immunoblotted with an anti-His tag antibody (top). The membranes were then stripped and re-probed with an anti-GST antibody (bottom). […] Absorbance was measured at 450 nm. […]
Figure 4 The α2–3 helix of the MMP-7 pro-domain is involved in its interaction with the syndecan-2 extracellular domain. […] (C) The secondary structure of the α2–3 helix of the MMP-7 pro-domain was analyzed using CD in the presence of different concentrations of TFE (top). Quantitative estimations of the secondary-structure content were made with the CDPro software package, which includes the programs CDSSTR, CONTIN, and SELCON3. […] Smaller values of NRMSD indicate closer correspondence between calculated structures and the experimental data. […]

[3] = tested on: His-tagged α2–3 helix of the MMP-7 pro-domain; assay: In vitro binding of GST-SDC2 proteins to His-tagged α2–3; design: species or system human; details: 2 h at 4 °C, glutathione-agarose beads, immunoblot
Description: as §1, with “data. […]” for “data.”

[4] = target: His-tagged pro-domain of MMP-7 (His-PD) (human, UniProt P09237 18-267, Limits are the UniProt activation peptide. Paper's NMR numbering + 24 = precursor numbering (Gln7=Q31, Glu32=E56, Gly48=G72, Ser52=S76). Deletion-construct numbering implies a PD of about 79 residues,); assay: other fluorescence titration; tryptophan quenching; 15 uM His-PD, S2-P titrated up to 1:200 molar ratio; PBS pH 7.4, 298 K; excitation 280 nm, intensity at 347 nm; details: both partners purified
[5] = target: T1, His-tagged pro-domain of MMP-7 (His-PD) (Homo sapiens, UniProt P09237); assay: In vitro binding (GST pulldown / anti-His immunoblot) with His-PD; details: GST-tagged proteins
T1 construct: His tag; pET32a(+) vector-encoded fusion part (thioredoxin/S-tag by own knowledge of the vector); made in house
T1 sequence (P09237 18-94 limits assumed): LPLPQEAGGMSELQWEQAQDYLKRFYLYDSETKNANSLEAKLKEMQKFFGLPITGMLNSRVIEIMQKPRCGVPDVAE
Text: Figure 1 The N-terminus of syndecan-2 interacts with the pro-domain of MMP-7. (A) Schematic representation of the syndecan-2 core protein (SDC2) and MMP-7. The signal peptide (SP), the extracellular domain (EC), the transmembrane domain (TM), and the cytoplasmic domain (CT) of syndecan-2 are noted, and the various deletion mutants are indicated. A peptide corresponding to residues 41–60 of the syndecan-2 extracellular domain (S2-P) was synthesized. Syndecan-2 is labeled with amino acid numbers to show the location of each deletion (left). Schematic representation of MMP-7. The pre-domain (Pre), pro-domain (PD), and catalytic domain are shown (right top). Purified GST-SDC2 mutants and the His-tagged pro-domain of MMP-7 were separated by 15% SDS-PAGE and stained with Coomassie Blue (right bottom). (B) Purified GST or GST-SDC2 mutants were incubated with His-tagged pro-domain of MMP-7 (His-PD). Bound materials were subjected to immunoblotting with an anti-His tag antibody (top). The membranes were then stripped and re-probed with an anti-GST antibody (bottom). (C) Purified GST-SDC2 was incubated with purified His-PD MMP-7 plus the indicated amounts of S2-P for 2 h at 4 °C. Bound materials were subjected to immunoblotting with an anti-His tag antibody (top). […] (D) Fluorescence spectroscopy indicates the binding affinity between His-PD and S2-P peptide. […]

[6] = tested on: His-tagged ΔNC MMP-7 pro-domain; assay: In vitro binding of GST-SDC2 mutants to His-ΔNC; design: species or system human; details: 2 h at 4 °C, immunoblot
Description: Figure 2 The pro-domain of MMP-7 is involved in its interaction with the syndecan-2 extracellular domain. (A) Schematic representations of the pro-domain of MMP-7 (PD) and the deletion mutants lacking the pro-domain, N-terminus (ΔN), C-terminus (ΔC) and both N- and C-terminus (ΔNC) (top). His-tagged MMP-7 pro-domain was purified with Ni-NTA agarose beads, separated by SDS-PAGE and stained with Coomassie Blue (bottom). (B) Purified GST-S2E, S2E-C and S2E-NII were incubated with His-tagged PD, or ΔN, ΔC or ΔNC MMP-7 pro-domain. Materials bound to glutathione-agarose beads were immunoblotted with an anti-His tag antibody (top). The membranes were then stripped and re-probed with an anti-GST antibody (bottom). (C) ELISA plates coated with 600 ng of S2-P were incubated with the indicated His-tagged MMP-7 pro-domains (500 ng/well) for 2 h at 20 °C. The plates were washed, incubated with an anti-His tag antibody followed by IgG-HRP, and developed with TMB-ELISA. Absorbance was measured at 450 nm. Data are shown as mean ± S.D. (n = 3), *p < 0.05 versus blank. (D) Purified GST-SDC2 was mixed with His-tagged ΔNC for 2 h at 4 °C., separated by SDS-PAGE, and immunoblotted with anti-His or -GST antibodies. (E) The secondary structures of the MMP-7 pro-domain mutants of ΔN, ΔC and ΔNC were diluted to 50 μM in a buffer consisting of 10 mM HEPES and 20 mM NaCl, pH 8, and kept at 20 °C. […]

Sequence of His-tagged pro-domain of MMP-7 (His-PD) (human, UniProt P09237 18-267, Limits are the UniProt activation peptide. Paper's NMR numbering + 24 = precursor numbering (Gln7=Q31, Glu32=E56, Gly48=G72, Ser52=S76). Deletion-construct numbering implies a PD of about 79 residues,) (P09237 18-267): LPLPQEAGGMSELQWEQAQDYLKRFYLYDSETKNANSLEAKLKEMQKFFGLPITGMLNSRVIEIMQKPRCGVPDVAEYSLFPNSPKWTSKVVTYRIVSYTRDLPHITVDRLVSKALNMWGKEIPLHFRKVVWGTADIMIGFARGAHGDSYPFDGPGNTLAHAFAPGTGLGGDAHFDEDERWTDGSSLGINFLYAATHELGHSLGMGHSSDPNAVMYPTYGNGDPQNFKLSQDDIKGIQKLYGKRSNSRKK

α2–3: α2 helix-loop-α3 helix protein fragment of the MMP-7 pro-domain
interaction with the N-terminus of the extracellular domain of syndecan-2 (pulldown, qualitative) [1]: interacted with the N-terminus of the extracellular domain of syndecan-2
interaction with syndecan-2 (pulldown, qualitative) (GST-SDC-2): interacted with syndecan-2, although to a slightly weaker degree than ΔNC; also recorded: interacted with recombinant syndecan-2 in vitro
helicity ([2]; CD, α-helical fraction from CDPro, without TFE): 75%
secondary structure by CD (qualitative) ([2]; far-UV CD, pro-domain mutants at 50 μM, 10 mM HEPES, 20 mM NaCl, pH 8, 20 °C (Fig. 2E), α2–3 in Fig. 4C): had a helical structure, as suggested by the presence of minima (negative peaks) at 208 and 222 nm

B1: recombinant syndecan-2: Purified GST-SDC2 (protein, UniProt P34741 19-201, looked up)
Syndecan-2: ESRAELTSDKDMYLDNSSIEEASGVYPIDDDDYASASGSGADEDVESPELTTSRPLPKILLTSAAPKVETTTLNIQNKIPAQTKSPEETDKEKVHLSDSERKMDPAEEDTNVYTEKHSDSLFKRTEVLAAVIAGGVIGFLFAIFLILLLVYRMRKKDEGSYDLGERKPSSAAYQKAPTKEFYA
modifications: GST tag
notes: Purified GST-SDC2
interaction with α2–3 (pulldown, qualitative) [3]: interacted with the α2–3

B2: synthetic human syndecan-2 peptide (S2-P), extracellular domain residues 41-60 (peptide)
peptide: SGVYPIDDDDYASASGSGAD
notes: human syndecan-2 extracellular domain residues 41-60; also called S2-P peptide; source: synthetic peptide (Fmoc solid-phase, Anygen Inc.)
Kd [4]: 1586 ± 12 µM

B3: S2E: GST-tagged syndecan-2 extracellular domain (protein)
chain: ESRAELTSDKDMYLDNSSIEEASGVYPIDDDDYASASGSGADEDVESPELTTSRPLPKILLTSAAPKVETTTLNIQNKIPAQTKSPEETDKEKVHLSDSERKMDPAEEDTNVYTEKHSDSLFKRTE
modifications: left off: GST, end not stated, kept
notes: GST-tagged syndecan-2 extracellular domain
interaction with His-PD (pulldown, qualitative) [5]: interacted with the pro-domain of MMP-7

B4: Y51A: substitution of Tyr51 with Ala in the syndecan-2 extracellular domain (protein)
chain: ESRAELTSDKDMYLDNSSIEEASGVYPIDDDDAASASGSGADEDVESPELTTSRPLPKILLTSAAPKVETTTLNIQNKIPAQTKSPEETDKEKVHLSDSERKMDPAEEDTNVYTEKHSDSLFKRTE
modifications: left off: GST, end not stated, kept
notes: substitution of Tyr51 with Ala in the syndecan-2 extracellular domain
interaction with α2–3 (pulldown, qualitative) [3]: failed to interact with the α2–3
interaction with His-tagged ΔNC (pulldown, qualitative) [6]: significantly reduced the interaction

B5: D49A: substitution of Asp49 with Ala in the syndecan-2 extracellular domain (protein)
chain: ESRAELTSDKDMYLDNSSIEEASGVYPIDDADYASASGSGADEDVESPELTTSRPLPKILLTSAAPKVETTTLNIQNKIPAQTKSPEETDKEKVHLSDSERKMDPAEEDTNVYTEKHSDSLFKRTE
modifications: left off: GST, end not stated, kept
notes: substitution of Asp49 with Ala in the syndecan-2 extracellular domain
interaction with His-tagged ΔNC (pulldown, qualitative) [6]: did not affect its interaction
